Where a chain is given by its changes, count along the chain named.
T1: human TREM2 (human, UniProt Q9NZC2 19-174, limits assumed)
T1 construct: also called triggering receptor expressed on myeloid cells 2
T1 sequence: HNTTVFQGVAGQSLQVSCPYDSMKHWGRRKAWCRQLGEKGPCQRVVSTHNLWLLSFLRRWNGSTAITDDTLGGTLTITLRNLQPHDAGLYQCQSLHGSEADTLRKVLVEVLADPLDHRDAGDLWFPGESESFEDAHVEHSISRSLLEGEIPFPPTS

B1: V6 (antibody, V domains shown)
VH: EVQLVQSGAEVKKPGESLKISCKGSGYSFTSMWIAWVRQMPGKGLEWMGIIYPGDSDTRYSPSFQGQVTISADKSISTAYLQWSSLKASDTAMYFCARQRTFYYDSSDYFDYWGQGTLVTVSS
VL: DIQMTQSPSSVSASVGDRVTITCRASQGISSWLAWYQQKPGKAPKLLIYAASSLQNGVPSRFSGSGSGTDFTLTISSLQPEDFATYFCQQADSFPRTFGQGTKLEIK
notes: also called 6E7 variant V6
B2: V43 (antibody, V domains shown)
VH: B1 VH with M32Y, D57G
VL: B1 VL
notes: also called 6E7 variant V43
B3: V55 (antibody, V domains shown)
VH: B1 VH with M32Y, R59I, F64H
VL: B1 VL
notes: also called 6E7 variant V55
B4: V18 (antibody, V domains shown)
VH: B1 VH with M32Y, W33H
VL: B1 VL
notes: also called 6E7 variant V18
B5: V32 (antibody, V domains shown)
VH: B1 VH with M32Y, P62N
VL: B1 VL
notes: also called 6E7 variant V32
B6: V46 (antibody, V domains shown)
VH: B1 VH with M32Y
VL: B1 VL with S53T
notes: also called 6E7 variant V46
B7: V11 (antibody, V domains shown)
VH: B1 VH with M32Y
VL: B1 VL with D92A
notes: also called 6E7 variant V11
B8: V23 (antibody, V domains shown)
VH: B1 VH with M32Y
VL: B1 VL with R96L
notes: also called 6E7 variant V23; LV-202/HV-15
B9: V59 (antibody, V domains shown)
VH: B1 VH with M32Y
VL: B1 VL with Q89M
notes: also called 6E7 variant V59
B10: V44 (antibody, V domains shown)
VH: B1 VH with M32Y, G54S
VL: B1 VL
notes: also called 6E7 variant V44; LV-16/HV-204
B11: V30 (antibody, V domains shown)
VH: B1 VH with Y27S, M32Y
VL: B1 VL
notes: also called 6E7 variant V30; LV-16/HV-202
B12: V19 (antibody, V domains shown)
VH: B1 VH with M32S
VL: B1 VL
notes: also called 6E7 variant V19
B13: V20 (antibody, V domains shown)
VH: B1 VH with M32Y, I50R
VL: B1 VL
notes: also called 6E7 variant V20
B14: V47 (antibody, V domains shown)
VH: B1 VH with M32Y
VL: B1 VL with R96M
notes: also called 6E7 variant V47
B15: V7 (antibody, V domains shown)
VH: B1 VH with M32E
VL: B1 VL
notes: also called 6E7 variant V7
B16: V8 (antibody, V domains shown)
VH: B1 VH with M32Y, R59K
VL: B1 VL
notes: also called 6E7 variant V8
B17: V42 (antibody, V domains shown)
VH: B1 VH with M32A
VL: B1 VL
notes: also called 6E7 variant V42
B18: V31 (antibody, V domains shown)
VH: B1 VH with M32Y, D57E
VL: B1 VL
notes: also called 6E7 variant V31
B19: V45 (antibody, V domains shown)
VH: B1 VH with M32Y
VL: B1 VL with W32F
notes: also called 6E7 variant V45
B20: V56 (antibody, V domains shown)
VH: B1 VH with M32Y, S61Q
VL: B1 VL
notes: also called 6E7 variant V56
B21: V21 (antibody, V domains shown)
VH: B1 VH with M32Y, Y109F
VL: B1 VL
notes: also called 6E7 variant V21
B22: V35 (antibody, V domains shown)
VH: B1 VH with M32Y
VL: B1 VL with D92Y
notes: also called 6E7 variant V35
B23: V33 (antibody, V domains shown)
VH: B1 VH with M32Y, Y104G
VL: B1 VL
notes: also called 6E7 variant V33; LV-16/HV-203
B24: V10 (antibody, V domains shown)
VH: B1 VH with M32Y
VL: B1 VL with A50S
notes: also called 6E7 variant V10; LV-201/HV-15
B25: V54 (antibody, V domains shown)
VH: B1 VH with M32Q
VL: B1 VL
notes: also called 6E7 variant V54
B26: V57 (antibody, V domains shown)
VH: B1 VH with M32Y
VL: B1 VL with R24A
notes: also called 6E7 variant V57; LV-203/HV-15
B27: V34 (antibody, V domains shown)
VH: B1 VH with M32Y
VL: B1 VL with N56D
notes: also called 6E7 variant V34
B28: V9 (antibody, V domains shown)
VH: B1 VH with M32Y, T101G
VL: B1 VL
notes: also called 6E7 variant V9; LV-16/HV-201
B29: V22 (antibody, V domains shown)
VH: B1 VH with M32Y
VL: B1 VL with A50R
notes: also called 6E7 variant V22
B30: V58 (antibody, V domains shown)
VH: B1 VH with M32Y
VL: B1 VL with A50K
notes: also called 6E7 variant V58

Molecular target: T1, human TREM2
Test: 2nd screen, 100 nM

| Binding Signal | Binder |
| --- | --- |
| 0.56 fold over 6E7 parental antibody | B1 |
| 0.33 fold over 6E7 parental antibody | B2 |
| 0.66 fold over 6E7 parental antibody | B3 |
| 0.42 fold over 6E7 parental antibody | B4 |
| 0.89 fold over 6E7 parental antibody | B5 |
| 0.96 fold over 6E7 parental antibody | B6 |
| 0.42 fold over 6E7 parental antibody | B7 |
| 0.4 fold over 6E7 parental antibody | B8 |
| 0.6 fold over 6E7 parental antibody | B9 |
| 0.52 fold over 6E7 parental antibody | B10 |
| 0.72 fold over 6E7 parental antibody | B11 |
| 0.48 fold over 6E7 parental antibody | B12 |
| 0.52 fold over 6E7 parental antibody | B13 |
| 0.47 fold over 6E7 parental antibody | B14 |
| 0.32 fold over 6E7 parental antibody | B15 |
| 0.77 fold over 6E7 parental antibody | B16 |
| 0.41 fold over 6E7 parental antibody | B17 |
| 0.73 fold over 6E7 parental antibody | B18 |
| 0.53 fold over 6E7 parental antibody | B19 |
| 0.59 fold over 6E7 parental antibody | B20 |
| 0.68 fold over 6E7 parental antibody | B21 |
| 0.29 fold over 6E7 parental antibody | B22 |
| 0.34 fold over 6E7 parental antibody | B23 |
| 0.7 fold over 6E7 parental antibody | B24 |
| 0.54 fold over 6E7 parental antibody | B25 |
| 0.85 fold over 6E7 parental antibody | B26 |
| 1.02 fold over 6E7 parental antibody | B27 |
| 0.54 fold over 6E7 parental antibody | B28 |
| 0.71 fold over 6E7 parental antibody | B29 |
| 0.68 fold over 6E7 parental antibody | B30 |

Molecular target: T1, human TREM2
Test: 1st screen, 110 nM Ab

| Binding Signal | Binder |
| --- | --- |
| 0.2 fold over 6E7 parental antibody | B1 |
| 0.2 fold over 6E7 parental antibody | B2 |
| 0.24 fold over 6E7 parental antibody | B3 |
| 0.17 fold over 6E7 parental antibody | B4 |
| 0.82 fold over 6E7 parental antibody | B5 |
| 0.83 fold over 6E7 parental antibody | B6 |
| 0.79 fold over 6E7 parental antibody | B7 |
| 0.4 fold over 6E7 parental antibody | B8 |
| 0.19 fold over 6E7 parental antibody | B9 |
| 0.65 fold over 6E7 parental antibody | B10 |
| 0.79 fold over 6E7 parental antibody | B11 |
| 0.59 fold over 6E7 parental antibody | B12 |
| 0.18 fold over 6E7 parental antibody | B13 |
| 0.42 fold over 6E7 parental antibody | B14 |
| 0.11 fold over 6E7 parental antibody | B15 |
| 0.28 fold over 6E7 parental antibody | B16 |
| 0.45 fold over 6E7 parental antibody | B17 |
| 0.61 fold over 6E7 parental antibody | B18 |
| 0.43 fold over 6E7 parental antibody | B19 |
| 0.23 fold over 6E7 parental antibody | B20 |
| 0.76 fold over 6E7 parental antibody | B21 |
| 0.21 fold over 6E7 parental antibody | B22 |
| 0.23 fold over 6E7 parental antibody | B23 |
| 0.76 fold over 6E7 parental antibody | B24 |
| 0.55 fold over 6E7 parental antibody | B25 |
| 0.84 fold over 6E7 parental antibody | B26 |
| 0.34 fold over 6E7 parental antibody | B27 |
| 0.67 fold over 6E7 parental antibody | B28 |
| 0.3 fold over 6E7 parental antibody | B29 |
| 0.28 fold over 6E7 parental antibody | B30 |

From patent US20250326839A1 (VIGIL NEUROSCIENCE, published 2025)
